Assay results: the supplement of paper PMC10567573

B1: ZNF511 (parent)
chain: YEHHYHTLHGNVCSFCKRAFPSGH
B2: ZER1 (parent)
chain: PILRLLPQGISPVSQHWATWALYN
B3: POMT2 (parent)
chain: YHEAPMTRKHYQVTGYGINGTGDS

Variants of: B1
Experiment: protein stability index of a GFP-peptide fusion (GPS, HEK-293T) (PSI 1-6); higher = more stable
Settings: c terminus: a fixed tail appended
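Note: lentivirally expressed fusions sorted by FACS into six bins by GFP to DsRed ratio, PSI derived from sequencing read proportions per bin multiplied by bin number.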

Protein stability index of substitutions, site by site:
H24: P 2.08 | R 2.08 | M 2.17 | W 2.43 | Y 1.65 | V 2.25 | Q 2.08 | T 2.24 | S 2.46 | K 1.57 | N 2.39 | L 2.02

Variants of: B2
Experiment: as above
Settings: c terminus: a fixed tail appended

Protein stability index, by site and new letter:
P1: K 2.4 | A 5.68 | T 2.19 | R 2 | H 2.39 | F 3.24 | S 2.07
L6: P 2.83 | Q 1.46 | C 2.88 | E 2.53 | F 3.51 | D 2.56 | Y 2.65 | R 3.26
G9: F 2.78 | H 5.34 | I 2.95 | N 2.01 | K 3.57 | T 2.8 | S 2.01 | Q 1.97
Y23: I 3.22 | D 2 | S 1.66 | G 2.11 | N 2.92 | K 1.92 | E 1.8 | W 4.62 | V 3.73 | R 1.17 | H 3.01 | P 1.54
W20: M 3.46 | Y 2.5 | P 2.79 | R 1.64 | Q 1.47 | I 4.55 | A 2.62 | N 2.09 | T 3.72 | D 2.6 | F 3.5 | K 1.28 | S 2.41 | E 1.58 | C 3.55 | G 1.37 | H 2.61
L3: N 2.54 | P 1.04 | W 1.02 | A 3.7 | R 1.95 | D 3.05 | E 1.36 | I 1.5 | G 1.44 | T 2.52 | V 1.78 | Q 1.62 | Y 1.06 | H 1.75
R4: H 2.46 | L 1.38 | T 3.54 | K 3.47 | F 4.37 | S 2.24 | N 2.38 | Y 3.25 | I 3.46 | Q 1.4 | V 2.42 | W 2.54
V13: D 2.84 | N 1.8 | S 2.54 | A 4.06 | I 1.68 | W 1.54 | F 1.88 | C 2.48 | L 2.34 | T 3.01 | G 1.87
S14: C 2.98 | T 1.11 | K 1.43 | V 2.62 | Y 2.6 | Q 2.12
S11: E 3.05 | D 3.26 | V 2.22 | M 1.99 | R 3.06 | I 2.53 | L 2.53 | A 2.83 | W 1.59 | G 2.17 | P 1.77 | H 2.03 | C 3.31
A18: K 2.89 | E 2.82 | T 3.18 | R 2.58 | H 2.94 | L 2.27 | N 3.82 | M 2.28 | C 1.74 | I 1.83 | Y 4.06 | G 2.24
I10: N 2.41 | L 2.61 | D 1.76 | M 3.55 | H 2.79 | E 3.31
W17: M 3.18 | T 1.73 | P 1.4 | D 1.79 | L 4.01 | G 1.93 | R 3.1 | I 3.9 | A 1.72 | S 2.51 | C 2.27 | E 2.35 | H 1.57 | N 1.83 | F 3.63 | Q 3.2 | V 2.59 | K 2.16 | Y 2.15
Q8: H 1.5 | K 2.29 | R 3.32 | Y 2.12 | W 3.15 | F 2.58
I2: D 2.52 | A 2.46 | T 2.92 | P 3.08 | N 1.5 | C 2.98 | K 2.04 | R 3.12 | H 1.17 | Q 1.26 | E 2.45
P12: H 3.2 | Y 3.44 | Q 3.42 | V 2.1 | I 3.2 | A 2.33 | F 3.32 | N 1.85 | K 2.87
L22: K 1.52 | H 1.58 | A 3.32 | S 1.71 | P 1.57 | N 1.88 | W 4.02 | Q 3.18 | D 2.02 | Y 2.83 | R 3.48 | E 1.58 | G 2.3
P7: A 2.22 | T 3.41 | W 1.97 | F 2.8 | D 2.52 | V 1.65 | H 5.21 | M 3.56 | C 2.12 | E 3.19 | R 1.55
Q15: N 2.99 | V 3.31 | E 2.19 | T 3.05 | K 2.97 | M 4.6 | F 2.68 | G 1 | L 1.94
N24: R 4.17 | I 3.12 | L 4.12 | D 3.49 | V 3.21 | W 2.32 | A 2.09 | M 3.8 | H 2.93 | Q 2.31 | P 3.08 | T 2.25
H16: I 3.38 | D 2.11 | R 3.32 | K 1.94 | E 1.34 | N 2.34 | P 1.45
T19: K 2.3 | A 2.69 | P 2.12 | G 1.97 | D 2.33
L5: R 1.84 | V 3.75 | A 1.65 | Q 1.95 | T 1.14 | K 1.25 | Y 1.77 | C 3.09 | H 2.07 | N 1.99 | G 3.62 | D 2.04 | M 3.4 | F 2.22
A21: K 2.07 | I 3.15 | P 2.65 | R 1 | T 2.57 | W 2.29 | V 3.96 | M 3.29 | F 2.7 | N 1.76 | S 2.6 | Q 3.72 | Y 4.95 | C 2.69 | D 2.79 | L 2.38 | E 2.6

Variants of: B3
Experiment: as above
Settings: c terminus: a fixed tail appended

Protein stability index of substitutions, site by site:
A4: F 2.68 | D 2.95 | G 2.37 | H 2.04 | C 2.5 | E 2.93
E3: F 1.52 | S 1.6 | Y 1.77 | M 1.67 | A 2.46 | G 2.75 | Q 1.34 | P 2.87 | I 1.73 | D 2.15 | L 1.61 | V 2.22 | W 1.44 | C 2 | T 2.32 | K 1.9 | R 1.47 | H 1.77 | N 2.38
Y1: I 4.03 | P 4.07 | E 4.3 | C 3.05 | L 3.47 | F 1.89 | K 3.97 | T 3.91 | S 3.68 | R 3.51 | G 3.53 | Q 3.9 | W 3.72 | D 3.94 | M 3.71 | V 3.49 | N 3.5 | A 3.68 | H 3.58
H2: P 2.99 | R 3.81 | T 2.58 | C 1.97 | Q 3.33 | W 2.72 | N 3.5 | F 3.38 | E 3.95 | G 2.92 | V 1.89 | A 2.56 | S 3.39 | D 3.98 | I 2.21 | Y 2.75 | K 3.57 | L 3.07 | M 3.09
